From article PMC8640019 come the findings set out here.

For the assay, the target named is SH2B (human) (UniProt Q9NRF2). The assay can be described thus: ITC. A general note: Isothermal titration calorimetry measures the heat released or taken up as one component is titrated into another.

With JAK2 pY813 peptide, the Ka stood at 1.45e+06 M⁻¹; the Kd (as a rule, the equilibrium constant for the complex coming apart) worked out at 690 nM; the stoichiometry N – broadly, a count of units in the complex or per binding partner – amounted to 0.79.
